The source of these data is paper PMC12153344, “Deciphering the role of accessory proteins in Arabidopsis chloroplast editosomes via interaction with a synthetic PPR-PLS factor in E. coli”.

One series has as its target T1, MBP-ORRM1 (Arabidopsis, UniProt Q8L440 55-374).
T1 sequence: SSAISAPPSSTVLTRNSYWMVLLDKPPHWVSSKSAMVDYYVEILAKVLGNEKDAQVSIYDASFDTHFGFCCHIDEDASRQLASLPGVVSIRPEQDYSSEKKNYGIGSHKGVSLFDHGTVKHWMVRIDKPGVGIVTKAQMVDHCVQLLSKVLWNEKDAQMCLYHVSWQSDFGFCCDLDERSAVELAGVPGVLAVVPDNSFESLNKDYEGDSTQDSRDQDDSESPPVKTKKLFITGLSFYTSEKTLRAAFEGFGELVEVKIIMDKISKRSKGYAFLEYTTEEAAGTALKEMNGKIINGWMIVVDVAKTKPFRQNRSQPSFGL
Kind of series: EMSA; MBP-ORRM1; no shift after many purification attempts; REMSA following Royan et al. (2021), binding buffer, pH and temperature not given in the material; proteins stored in 25 mM Tris-HCl pH 7.2, 250 mM NaCl, 20% glycerol, 0.5 mM EDTA, 1 mM DTT. The conditions noted are these: protein: recombinant; tags: N-terminal MBP; label: 5'-Cy5; single strand. On the technique in general: Mobility shift assays separate free from complexed probe on a gel.

Another series concerns the target T2, dsn3PLS-DYW (synthetic construct (design of Royan et …, UniProt UPI0040747504 1-612)).
T2 chain: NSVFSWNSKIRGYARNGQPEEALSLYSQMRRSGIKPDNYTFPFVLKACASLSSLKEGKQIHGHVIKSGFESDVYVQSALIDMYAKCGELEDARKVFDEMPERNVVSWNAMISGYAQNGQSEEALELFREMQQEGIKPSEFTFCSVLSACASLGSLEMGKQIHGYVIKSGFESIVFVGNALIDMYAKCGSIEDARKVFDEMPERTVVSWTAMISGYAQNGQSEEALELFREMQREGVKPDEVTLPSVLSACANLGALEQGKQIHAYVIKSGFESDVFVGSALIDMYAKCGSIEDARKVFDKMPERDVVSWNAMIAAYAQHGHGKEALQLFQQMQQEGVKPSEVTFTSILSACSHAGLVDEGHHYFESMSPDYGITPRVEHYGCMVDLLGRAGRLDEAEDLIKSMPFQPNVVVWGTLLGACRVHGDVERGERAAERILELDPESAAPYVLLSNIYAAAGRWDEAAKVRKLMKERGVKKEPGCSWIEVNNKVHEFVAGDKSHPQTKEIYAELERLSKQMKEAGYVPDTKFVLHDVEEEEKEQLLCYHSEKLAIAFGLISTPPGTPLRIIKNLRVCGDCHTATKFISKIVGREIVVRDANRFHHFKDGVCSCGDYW
In words: EMSA; dsn3PLS-DYW alone; Kd estimated, value only in figure; REMSA following Royan et al. (2021), binding buffer, pH and temperature not given in the material; proteins stored in 25 mM Tris-HCl pH 7.2, 250 mM NaCl, 20% glycerol, 0.5 mM EDTA, 1 mM DTT. The conditions noted are these: protein: recombinant; tags: N-terminal thioredoxin (109 aa)-6xHis, 133 aa tag in total (pETM20); label: 5'-Cy5; single strand.

B1: rpoA_REMSA (ssRNA)
RNA: AUGUAUUACACGUGCAAAAUCUGAGA
Consider B1, for which the binding result was “no binding” with MBP-ORRM1 and “binds” with dsn3PLS-DYW.
